Results reported in the supplement of paper PMC5998384.

Experiments:
HeLa Kyoto [1] = assay: melting temperature (median over replicates), in situ; higher = more thermally stable
HeLa Kyoto [2] = assay: solubility in G1/S (NP-40 vs SDS abundance) (log2 ratio); higher = more soluble; conditions: cell cycle stage: G1/S
HeLa Kyoto [3] = assay: thermal stability score vs G1/S (z-score of summed log2 fold changes over temperatures); higher = more thermally stable than in G1/S
HeLa Kyoto [4] = assay: solubility change mitosis vs G1/S (difference of NP-40 vs SDS log2 ratios) (log2 ratio difference); higher = more soluble in mitosis
[5] = cell cycle stage: early G1 (4.5 h after nocodazole release)
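Throughout, for melting temperature (median over replicates), in situ: HeLa Kyoto cells synchronized by double thymidine or nocodazole block, proteins quantified by TMT10plex mass spectrometry, three independent biological replicates.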
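Throughout, for solubility change mitosis vs G1/S (difference of NP-40 vs SDS log2 ratios): synchronized HeLa Kyoto cells (double thymidine block for G1/S, nocodazole release for mitosis), protein amounts in NP-40 versus SDS lysates quantified by mass spectrometry, three biological replicates.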
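Throughout, for solubility in G1/S (NP-40 vs SDS abundance): HeLa Kyoto cells arrested at G1/S by double thymidine block, proteins quantified by TMT10plex mass spectrometry in mild NP-40 versus SDS extracts, three biological replicates.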
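Throughout, for thermal stability score vs G1/S (z-score of summed log2 fold changes over temperatures): synchronized HeLa Kyoto cells, proteins quantified by TMT10plex mass spectrometry, three biological replicates, mitosis taken 0.5 h after nocodazole release, G1/S directly after double thymidine block.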

Sequence | melting temperature (HeLa Kyoto [1]; cell cycle stage: G1/S) | melting temperature (HeLa Kyoto [1]; cell cycle stage: mitosis) | solubility in G1/S (log2) (HeLa Kyoto [2]) | thermal stability score (HeLa Kyoto [3]; [5]) | thermal stability score (HeLa Kyoto [3]; cell cycle stage: mitosis) | solubility change mitosis (log2) (HeLa Kyoto [4])
MEETIKDPPTSAVLLDHCHFSQVIFNSVEKFYIPGGDVTCHYTFTQHFIPRRKDWIGIFRVGWKTTREYYTFMWVTLPIDLNNKSAKQQEVQFKAYYLPKDDEYYQFCYVDEDGVVRGASIPFQFRPENEEDILVVTTQGEVEEIEQHNKELCKENQELKDSCISLQKQNSDMQAELQKKQEELETLQSINKKLELKVKEQKDYWETELLQLKEQNQKMSSENEKMGIRVDQLQAQLSTQEKEMEKLVQGDQDKTEQLEQLKKENDHLFLSLTEQRKDQKKLEQTVEQMKQNETTAMKKQQELMDENFDLSKRLSENEIICNALQRQKERLEGENDLLKRENSRLLSYMGLDFNSLPYQVPTSDEGGARQNPGLAYGNPYSGIQESSSPSPLSIKKCPICKADDICDHTLEQQQMQPLCFNCPICDKIFPATEKQIFEDHVFCHSL [CALCOCO2] | 50.5 °C | 51 °C | 0.203 | -0.458 | -0.851 | -0.0722
MEEVPHDCPGADSAQAGRGASCQGCPNQRLCASGAGATPDTAIEEIKEKMKTVKHKILVLSGKGGVGKSTFSAHLAHGLAEDENTQIALLDIDICGPSIPKIMGLEGEQVHQSGSGWSPVYVEDNLGVMSVGFLLSSPDDAVIWRGPKKNGMIKQFLRDVDWGEVDYLIVDTPPGTSDEHLSVVRYLATAHIDGAVIITTPQEVSLQDVRKEINFCRKVKLPIIGVVENMSGFICPKCKKESQIFPPTTGGAELMCQDLEVPLLGRVPLDPLIGKNCDKGQSFFIDAPDSPATLAYRSIIQRIQEFCNLHQSKEENLISS [NUBP1] | 52.4 °C | 52.7 °C | 0.398 | 3.38 | 2.05 | 0.00361
MEFAELIKTPRVDNVVLHRPFYPAVEGTLCLTGHHLILSSRQDNTEELWLLHSNIDAIDKRFVGSLGTIIIKCKDFRIIQLDIPGMEECLNIASSIEALSTLDSITLMYPFFYRPMFEVIEDGWHSFLPEQEFELYSSATSEWRLSYVNKEFAVCPSYPPIVTVPKSIDDEALRKVATFRHGGRFPVLSYYHKKNGMVIMRSGQPLTGTNGRRCKEDEKLINATLRAGKRGYIIDTRSLNVAQQTRAKGGGFEQEAHYPQWRRIHKSIERYHILQESLIKLVEACNDQTHNMDRWLSKLEASNWLTHIKEILTTACLAAQCIDREGASILIHGTEGTDSTLQVTSLAQIILEPRSRTIRGFEALIEREWLQAGHPFQQRCAQSAYCNTKQKWEAPVFLLFLDCVWQILRQFPCSFEFNENFLIMLFEHAYASQFGTFLGNNESERCKLKLQQKTMSLWSWVNQPSELSKFTNPLFEANNLVIWPSVAPQSLPLWEGIFLRWNRSSKYLDEAYEEMVNIIEYNKELQAKVNILRRQLAELETEDGMQESP [MTMR9] | 50.2 °C | 50.6 °C | -0.116 | -0.213 | -0.626 | -0.125
MEFDLGAALEPTSQKPGVGAGHGGDPKLSPHKVQGRSEAGAGPGPKQGHHSSSDSSSSSSDSDTDVKSHAAGSKQHESIPGKAKKPKVKKKEKGKKEKGKKKEAPH [IMUP] | 59.3 °C |  | 1.09 | 1.02 | -1.94 | 0.311
MEFSSPSREECPKPLSRVSIMAGSLTGLLLLQAVSWASGARPCIPKSFGYSSVVCVCNATYCDSFDPPTFPALGTFSRYESTRSGRRMELSMGPIQANHTGTGLLLTLQPEQKFQKVKGFGGAMTDAAALNILALSPPAQNLLLKSYFSEEGIGYNIIRVPMASCDFSIRTYTYADTPDDFQLHNFSLPEEDTKLKIPLIHRALQLAQRPVSLLASPWTSPTWLKTNGAVNGKGSLKGQPGDIYHQTWARYFVKFLDAYAEHKLQFWAVTAENEPSAGLLSGYPFQCLGFTPEHQRDFIARDLGPTLANSTHHNVRLLMLDDQRLLLPHWAKVVLTDPEAAKYVHGIAVHWYLDFLAPAKATLGETHRLFPNTMLFASEACVGSKFWEQSVRLGSWDRGMQYSHSIITNLLYHVVGWTDWNLALNPEGGPNWVRNFVDSPIIVDITKDTFYKQPMFYHLGHFSKFIPEGSQRVGLVASQKNDLDAVALMHPDGSAVVVVLNRSSKDVPLTIKDPAVGFLETISPGYSIHTYLWRRQ [GBA] | 55.4 °C | 55.7 °C | 0.227 | -0.371 | 0.189 | -0.136
MEGAKPTLQLVYQAVQALYHDPDPSGKERASFWLGELQRSVHAWEISDQLLQIRQDVESCYFAAQTMKMKIQTSFYELPTDSHASLRDSLLTHIQNLKDLSPVIVTQLALAIADLALQMPSWKGCVQTLVEKYSNDVTSLPFLLEILTVLPEEVHSRSLRIGANRRTEIIEDLAFYSSTVVSLLMTCVEKAGTDEKMLMKVFRCLGSWFNLGVLDSNFMANNKLLALLFEVLQQDKTSSNLHEAASDCVCSALYAIENVETNLPLAMQLFQGVLTLETAYHMAVAREDLDKVLNYCRIFTELCETFLEKIVCTPGQGLGDLRTLELLLICAGHPQYEVVEISFNFWYRLGEHLYKTNDEVIHGIFKAYIQRLLHALARHCQLEPDHEGVPEETDDFGEFRMRVSDLVKDLIFLIGSMECFAQLYSTLKEGNPPWEVTEAVLFIMAAIAKSVDPENNPTLVEVLEGVVRLPETVHTAVRYTSIELVGEMSEVVDRNPQFLDPVLGYLMKGLCEKPLASAAAKAIHNICSVCRDHMAQHFNGLLEIARSLDSFLLSPEAAVGLLKGTALVLARLPLDKITECLSELCSVQVMALKKLLSQEPSNGISSDPTVFLDRLAVIFRHTNPIVENGQTHPCQKVIQEIWPVLSETLNKHRADNRIVERCCRCLRFAVRCVGKGSAALLQPLVTQMVNVYHVHQHSCFLYLGSILVDEYGMEEGCRQGLLDMLQALCIPTFQLLEQQNGLQNHPDTVDDLFRLATRFIQRSPVTLLRSQVVIPILQWAIASTTLDHRDANCSVMRFLRDLIHTGVANDHEEDFELRKELIGQVMNQLGQQLVSQLLHTCCFCLPPYTLPDVAEVLWEIMQVDRPTFCRWLENSLKGLPKETTVGAVTVTHKQLTDFHKQVTSAEECKQVCWALRDFTRLFR [TNPO3] | 51.6 °C | 51.7 °C | -0.253 | 0.188 | 1.24 | -0.0891
MEGESTSAVLSGFVLGALAFQHLNTDSDTEGFLLGEVKGEAKNSITDSQMDDVEVVYTIDIQKYIPCYQLFSFYNSSGEVNEQALKKILSNVKKNVVGWYKFRRHSDQIMTFRERLLHKNLQEHFSNQDLVFLLLTPSIITESCSTHRLEHSLYKPQKGLFHRVPLVVANLGMSEQLGYKTVSGSCMSTGFSRAVQTHSSKFFEEDGSLKEVHKINEMYASLQEELKSICKKVEDSEQAVDKLVKDVNRLKREIEKRRGAQIQAAREKNIQKDPQENIFLCQALRTFFPNSEFLHSCVMSLKNRHVSKSSCNYNHHLDVVDNLTLMVEHTDIPEASPASTPQIIKHKALDLDDRWQFKRSRLLDTQDKRSKADTGSSNQDKASKMSSPETDEEIEKMKGFGEYSRSPTF [FAM175A] |  | 57.3 °C | 0.0226 | -2.44 | -2.5 | -0.057
MEGKWLLCMLLVLGTAIVEAHDGHDDDVIDIEDDLDDVIEEVEDSKPDTTAPPSSPKVTYKAPVPTGEVYFADSFDRGTLSGWILSKAKKDDTDDEIAKYDGKWEVEEMKESKLPGDKGLVLMSRAKHHAISAKLNKPFLFDTKPLIVQYEVNFQNGIECGGAYVKLLSKTPELNLDQFHDKTPYTIMFGPDKCGEDYKLHFIFRHKNPKTGIYEEKHAKRPDADLKTYFTDKKTHLYTLILNPDNSFEILVDQSVVNSGNLLNDMTPPVNPSREIEDPEDRKPEDWDERPKIPDPEAVKPDDWDEDAPAKIPDEEATKPEGWLDDEPEYVPDPDAEKPEDWDEDMDGEWEAPQIANPRCESAPGCGVWQRPVIDNPNYKGKWKPPMIDNPSYQGIWKPRKIPNPDFFEDLEPFRMTPFSAIGLELWSMTSDIFFDNFIICADRRIVDDWANDGWGLKKAADGAAEPGVVGQMIEAAEERPWLWVVYILTVALPVFLVILFCCSGKKQTSGMEYKKTDAPQPDVKEEEEEKEEEKDKGDEEEEGEEKLEEKQKSDAEEDGGTVSQEEEDRKPKAEEDEILNRSPRNRKPRRE [CANX] | 53.7 °C | 53.9 °C | 0.339 | 2.71 | 3.35 | -0.0953
MEGLAGYVYKAASEGKVLTLAALLLNRSESDIRYLLGYVSQQGGQRSTPLIIAARNGHAKVVRLLLEHYRVQTQQTGTVRFDGYVIDGATALWCAAGAGHFEVVKLLVSHGANVNHTTVTNSTPLRAACFDGRLDIVKYLVENNANISIANKYDNTCLMIAAYKGHTDVVRYLLEQRADPNAKAHCGATALHFAAEAGHIDIVKELIKWRAAIVVNGHGMTPLKVAAESCKADVVELLLSHADCDRRSRIEALELLGASFANDRENYDIIKTYHYLYLAMLERFQDGDNILEKEVLPPIHAYGNRTECRNPQELESIRQDRDALHMEGLIVRERILGADNIDVSHPIIYRGAVYADNMEFEQCIKLWLHALHLRQKGNRNTHKDLLRFAQVFSQMIHLNETVKAPDIECVLRCSVLEIEQSMNRVKNISDADVHNAMDNYECNLYTFLYLVCISTKTQCSEEDQCKINKQIYNLIHLDPRTREGFTLLHLAVNSNTPVDDFHTNDVCSFPNALVTKLLLDCGAEVNAVDNEGNSALHIIVQYNRPISDFLTLHSIIISLVEAGAHTDMTNKQNKTPLDKSTTGVSEILLKTQMKMSLKCLAARAVRANDINYQDQIPRTLEEFVGFH [FEM1B] | 53.5 °C | 52.2 °C | -0.0515 | 0.363 | -1.04 | -0.0104
MEGLLHYINPAHAISLLSALNEERLKGQLCDVLLIVGDQKFRAHKNVLAASSEYFQSLFTNKENESQTVFQLDFCEPDAFDNVLNYIYSSSLFVEKSSLAAVQELGYSLGISFLTNIVSKTPQAPFPTCPNRKKVFVEDDENSSQKRSVIVCQSRNEAQGKTVSQNQPDVSHTSRPSPSIAVKANTNKPHVPKPIEPLHNLSLTEKSWPKDSSVVYAKSLEHSGSLDDPNRISLVKRNAVLPSKPLQDREAMDDKPGVSGQLPKGKALELALKRPRPPVLSVCSSSETPYLLKETNKGNGQGEDRNLLYYSKLGLVIPSSGSGSGNQSIDRSGPLVKSLLRRSLSMDSQVPVYSPSIDLKSSQGSSSVSSDAPGNVLCALSQKSSLKDCSEKTALDDRPQVLQPHRLRSFSASQSTDREGASPVTEVRIKTEPSSPLSDPSDIIRVTVGDAATTAAASSSSVTRDLSLKTEDDQKDMSRLPAKRRFQADRRLPFKKLKVNEHGSPVSEDNFEEGSSPTLLDADFPDSDLNKDEFGELEGTRPNKKFKCKHCLKIFRSTAGLHRHVNMYHNPEKPYACDICHKRFHTNFKVWTHCQTQHGIVKNPSPASSSHAVLDEKFQRKLIDIVREREIKKALIIKLRRGKPGFQGQSSSQAQQVIKRNLRSRAKGAYICTYCGKAYRFLSQFKQHIKMHPGEKPLGVNKVAKPKEHAPLASPVENKEVYQCRLCNAKLSSLLEQGSHERLCRNAAVCPYCSLRFFSPELKQEHESKCEYKKLTCLECMRTFKSSFSIWRHQVEVHNQNNMAPTENFSLPVLDHNGDVTGSSRPQSQPEPNKVNHIVTTKDDNVFSDSSEQVNFDSEDSSCLPEDLSLSKQLKIQVKEEPVEEAEEEAPEASTAPKEAGPSKEASLWPCEKCGKMFTVHKQLERHQELLCSVKPFICHVCNKAFRTNFRLWSHFQSHMSQASEESAHKESEVCPVPTNSPSPPPLPPPPPLPKIQPLEPDSPTGLSENPTPATEKLFVPQESDTLFYHAPPLSAITFKRQFMCKLCHRTFKTAFSLWSHEQTHN [ZBTB21] |  | 51.7 °C | -0.0999 | 0.647 | 0.374 | -0.0564
